{
  "source": "patent US20200325187A1",
  "about": "(Genentech, published 2020)",
  "key": {"hVEGF-A Q89A": {"molecular_target": "T1, hVEGF-A Q89A (human, UniProt P15692-4 34-135, Q89A)", "T1 construct": "position probably counted on the mature protein", "T1 sequence (looked up)": "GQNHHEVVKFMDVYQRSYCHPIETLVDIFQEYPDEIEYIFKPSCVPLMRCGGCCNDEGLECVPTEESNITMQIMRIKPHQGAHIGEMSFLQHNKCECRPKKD", "test": "SPR", "protocol": "(§1) Depending on the format of the assay either a streptavidin sensor (SA) or a dextran-coated (CM5) sensor was utilized as described below.\n(§2) Reaction was then quenched by addition of 10 molar excess of Glycine pH 8.0 and the sample was buffer exchanged into PBS using an Amicon 0.5 mL 3000 MWCO ultra-centrifugal filters (EMD Millipore). The biotinylation state of the protein was verified by LC-MS analysis. Biotinylated VEGF-A was then captured on the surface until a resonance unit (RU) signal of about ˜400. For immobilization of VEGF-A on CM5 sensor, the surface was first activated with a mixture of N-ethyl-N′-(3-dimethylaminopropyl)carbodiimide hydrochloride and N-hydroxysuccinimide (EDC/NHS) according to the supplier instructions. VEGF-A was then diluted into coupling buffer (0.1 M Acetate Buffer, pH 5.0) and injected until the signal reached about ˜400 RU followed by a wash with 1 M ethanolamine pH 8.0 to quench remaining activated sites."}, "hVEGF-A Y21A": {"molecular_target": "T2, hVEGF-A Y21A (human, UniProt P15692-4 34-135, Y21A)", "T2 construct": "position probably counted on the mature protein", "T2 sequence (looked up)": "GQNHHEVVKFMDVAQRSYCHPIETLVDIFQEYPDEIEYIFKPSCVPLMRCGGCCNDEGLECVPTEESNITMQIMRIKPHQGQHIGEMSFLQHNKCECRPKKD", "test": "SPR", "protocol": "as §1, §2"}},
  "data": [
    {"binder": "GCNIMLPFWGCGRDFECLAGCVCQYYQSCG (designed binder)", "note": "[VEGF_CKP9.54.90]", "values": [
      {"measurement": "Kd", "setting": "hVEGF-A Q89A", "result": 8.8, "unit": "nM"},
      {"measurement": "Kd", "setting": "hVEGF-A Y21A", "result": 3.5, "unit": "nM"}
    ]}
  ]
}
